Data on two molecules can be found in publication PMC4655608 (The Biochemical journal, 2015).

The experiment has as its target catalytic p110γ subunit of class IB phosphoinositide 3-kinase (PI3Kγ) (human, UniProt P48736 1-1102). Description: AUC.

Sequence of catalytic p110γ subunit of class IB phosphoinositide 3-kinase (PI3Kγ) (P48736 whole entry): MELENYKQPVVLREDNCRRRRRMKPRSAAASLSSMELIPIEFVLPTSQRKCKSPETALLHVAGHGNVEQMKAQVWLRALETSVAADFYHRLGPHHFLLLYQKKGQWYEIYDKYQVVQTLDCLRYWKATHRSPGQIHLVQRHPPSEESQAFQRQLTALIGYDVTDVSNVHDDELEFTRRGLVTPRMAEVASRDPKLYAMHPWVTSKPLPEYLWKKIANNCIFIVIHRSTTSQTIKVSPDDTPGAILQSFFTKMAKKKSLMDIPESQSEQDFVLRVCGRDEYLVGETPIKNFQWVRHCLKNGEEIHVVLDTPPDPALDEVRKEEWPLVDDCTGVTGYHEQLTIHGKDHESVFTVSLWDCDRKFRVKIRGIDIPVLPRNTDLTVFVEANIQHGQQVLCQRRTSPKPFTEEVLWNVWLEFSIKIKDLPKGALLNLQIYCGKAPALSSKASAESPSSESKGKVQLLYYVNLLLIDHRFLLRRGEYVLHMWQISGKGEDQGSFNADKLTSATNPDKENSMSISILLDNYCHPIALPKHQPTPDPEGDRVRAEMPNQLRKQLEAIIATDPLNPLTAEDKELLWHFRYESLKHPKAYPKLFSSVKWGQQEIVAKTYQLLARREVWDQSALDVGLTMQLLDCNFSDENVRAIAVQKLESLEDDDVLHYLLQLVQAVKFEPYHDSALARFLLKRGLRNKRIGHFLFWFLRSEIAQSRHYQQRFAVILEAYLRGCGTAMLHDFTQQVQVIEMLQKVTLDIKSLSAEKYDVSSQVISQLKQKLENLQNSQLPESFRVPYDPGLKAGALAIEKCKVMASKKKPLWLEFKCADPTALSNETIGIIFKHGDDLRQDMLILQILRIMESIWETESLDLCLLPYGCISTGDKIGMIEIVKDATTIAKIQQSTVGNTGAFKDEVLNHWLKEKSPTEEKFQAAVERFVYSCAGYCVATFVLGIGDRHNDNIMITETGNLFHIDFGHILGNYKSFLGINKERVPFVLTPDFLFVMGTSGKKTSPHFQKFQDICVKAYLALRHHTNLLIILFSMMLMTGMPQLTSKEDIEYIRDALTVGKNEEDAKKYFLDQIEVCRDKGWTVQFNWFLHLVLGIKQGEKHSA

B1: p87 non-catalytic subunit of PI3Kγ (natural protein, UniProt Q5UE93 1-754, looked up)
chain: MESSDVELDLQRSVQAVLRELSTQAPALQSNQGMWRWSLHKKVERDPGKSPVLVRILLRELEKAESQDLRHVIIPLLHTVMYVLTKATGITEELYQRIYAFCTRLLTLPTPYCTVALDCAIRLKTEMAVPGTLYQRMVIAEQNLTNELYPYQERVFLFVDPELVSASVCSALLLEIEAAQAQQTPETCMRHVVSHALQAALGEACHAGALHRKLQASPRRTLEHYFHAVVAALEQMASEASPSREGHVERLEEIYCSLLGPAAGRCGGDLVQERPPSIPLPSPYITFHLWTGEEQLWKELVLFLRPRSQLRLSADLEVLDLQGLRPDRELARVSVLSTDSGIERDLPTGADELPAPGSPEMERAGLQRKGGIKKRAWPLDFLMPGSWDGPPGLHRRTGRPSGDGEMLPGVSRLHTARVLVLGDDRMLGRLAQAYHRLRKRETQKFCLTPRLSLQLYYIPVLAPEKPAASRQPELGELATFLGRVDPWYQSNVNTLCPAIHKLAEMPPSLDTSRTVDPFILDVITYYIRMGTQPIYFQIYTVKIFFSDLSQDPTEDIFLIELKVKIQDSKFPKDGFSPRRRGVAEGPGAELSLCYQKALLSHRPREVTVSLRATGLILKAIPASDTEVSGSSHCPLPAAPVTDHTCLNVNVTEVVKSSNLAGKSFSTVTNTFRTNNIQIQSRDQRLLTLSLDKDDQRTFRDVVRFEVAPCPEPCSGAQKSKAPWLNLHGQQEVEAIKAKPKPLLMPINTFSGIVQ
As a reminder, the Kd is the free concentration of one partner at which half of the binding sites on the other are occupied at equilibrium, for simple one-to-one binding. A higher Kd goes with a looser complex. B1 had a dissociation constant (Kd) of at most 200 nM.

B2: p101 non-catalytic subunit of PI3Kγ (natural protein, UniProt Q8WYR1 1-880, looked up)
chain: MQPGATTCTEDRIQHALERCLHGLSLSRRSTSWSAGLCLNCWSLQELVSRDPGHFLILLEQILQKTREVQEKGTYDLLTPLALLFYSTVLCTPHFPPDSDLLLKAASTYHRFLTWPVPYCSICQELLTFIDAELKAPGISYQRLVRAEQGLPIRSHRSSTVTVLLLNPVEVQAEFLAVANKLSTPGHSPHSAYTTLLLHAFQATFGAHCDVPGLHCRLQAKTLAELEDIFTETAEAQELASGIGDAAEARRWLRTKLQAVGEKAGFPGVLDTAKPGKLHTIPIPVARCYTYSWSQDSFDILQEILLKEQELLQPGILGDDEEEEEEEEEVEEDLETDGHCAERDSLLSTSSLASHDSTLSLASSQASGPALSRHLLTSFVSGLSDGMDSGYVEDSEESSSEWPWRRGSQERRGHRRPGQKFIRIYKLFKSTSQLVLRRDSRSLEGSSDTALPLRRAGSLCSPLDEPVSPPSRAQRSRSLPQPKLGTQLPSWLLAPASRPQRRRPFLSGDEDPKASTLRVVVFGSDRISGKVARAYSNLRRLENNRPLLTRFFKLQFFYVPVKRSHGTSPGACPPPRSQTPSPPTDSPRHASPGELGTTPWEESTNDISHYLGMLDPWYERNVLGLMHLPPEVLCQQSLKAEAQALEGSPTQLPILADMLLYYCRFAARPVLLQVYQTELTFITGEKTTEIFIHSLELGHSAATRAIKASGPGSKRLGIDGDREAVPLTLQIIYSKGAISGRSRWSNLEKVCTSVNLNKACRKQEELDSSMEALTLNLTEVVKRQNSKSKKGFNQISTSQIKVDKVQIIGSNSCPFAVCLDQDERKILQSVVRCEVSPCYKPEKSDLSSPPQTPPDLPAQAAPDLCSLLCLPIMTFSGALP
B2 showed a dissociation constant (Kd) of at most 100 nM.
